Data as given in paper doi:10.1101/466904v1.
Changes are numbered by the printed parent chain. Names may count otherwise.

B1: Axe2 (Geobacillus stearothermophilus) (protein)
chain: MKIGSGEKLLFIGDSITDCGRARPEGEGSFGALGTGYVAYVVGLLQAVYPELGIRVVNKGISGNTVRDLKARWEEDVIAQKPDWVSIMIGINDVWRQYDLPFMKEKHVYLDEYEATLRSLVLETKPLVKGIILMTPFYIEGNEQDPMRRTMDQYGRVVKQIAEETNSLFVDTQAAFNEVLKTLYPAALAWDRVHPSVAGHMILARAFLREIGFEWVRSR
B2: Axe2 (Geobacillus stearothermophilus; R55E) (protein)
chain: B1 chain with R55E
B3: Axe2 (Geobacillus stearothermophilus; R55A) (protein)
chain: B1 chain with R55A
B4: Axe2 (Geobacillus stearothermophilus; Y184F) (protein)
chain: B1 chain with Y184F
B5: Axe2 (Geobacillus stearothermophilus; R205A/W215A/Y184F) (protein)
chain: B1 chain with Y184F, R205A, W215A
B6: Axe2 (Geobacillus stearothermophilus; Y184N) (protein)
chain: B1 chain with Y184N
B7: Axe2 (Geobacillus stearothermophilus; W190I) (protein)
chain: B1 chain with W190I
B8: Axe2 (Geobacillus stearothermophilus; W190P/Y184F) (protein)
chain: B1 chain with Y184F, W190P

Each protein was assayed on CC(=O)Oc1ccc2ccccc2c1 (assay: esterase activity assay). Details: 2-naphthyl acetate 1-20 mM in isopropanol, citrate phosphate buffer pH 7.
Type: biochemical, Geobacillus stearothermophilus

Protein	Km	kcat
B1	0.3 mM	720 s⁻¹
B2	0.5 mM	1000 s⁻¹
B3	0.6 mM	1000 s⁻¹
B4	4.6 mM	36 s⁻¹
B5	6.7 mM	42 s⁻¹
B6	1.3 mM	8.0x10^0 sec-1
B7	0.7 mM	290 s⁻¹
B8	3.0 mM	44 s⁻¹
